Values quoted from earlier work, collected in paper PMC7465391, “1,4-Disubstituted 1,2,3-Triazoles as Amide Bond Surrogates for the Stabilisation of Linear Peptides with Biological Activity” (Molecules, 2020).

Biological target: delta opioid receptor (DOPr) (UniProt P41143)
Assay: radioligand

Ki: 6.3 nM
Substance: Leu-enkephalin
